From PMC11279616 (Pharmaceuticals, 2024) come the findings set out here.

pKd: −log10 of the molar value. “And” between values parts separate entries of the source, which are not always exact repeats. Equal entries are not always repeated.

This assay has as its target SARS-CoV-2 Omicron BA.5 sublineage receptor binding domain (RBD) (SARS-CoV-2) (UniProt P0DTC2). Description: SPR. (In general: SPR reads the build-up and loss of mass on a sensor chip optically.)

The term pKd denotes the negative decadic logarithm of the Kd, by convention in mol/L. Low values mean a large Kd, high ones a small Kd. By koff is commonly meant a measure of how fast the partners let go of each other. A high value points to fast dissociation. For orientation: kon means a measure of how fast the partners come together. Consider DPP4_(270–295) peptide, for which the pKd is 5.92 and 5.82; the koff stood at 0.0014 s⁻¹; the kon was 1160 M⁻¹ s⁻¹.
